The values below come from patent US20100273979A1.

The Kd is a measure of binding affinity in units of concentration. High values mean lower affinity, low ones higher affinity. The koff is the first-order rate constant of dissociation. Low readings indicate a long-lived complex, high ones a short-lived complex. The term kon denotes a measure of how fast the partners come together. A higher kon goes with faster complex formation.

Experiment [1] concerns the target human serum albumin (human), P02768. Briefly: SPR (Biacore2000), HSA immobilised (450 RU), analyte 4-400 nM. (SPR reads the build-up and loss of mass on a sensor chip optically.)
The target is the same in experiment [2]. The experiment in a line: SPR (Biacore2000), HSA immobilised on CM-5, analyte injected at 25 nM; qualitative.
The target of experiment [3] is mouse serum albumin (mouse), P07724. Briefly: SPR (Biacore2000), MSA immobilised on CM-5, analyte injected at 25 nM; qualitative.
mouse serum albumin (mouse), P07724, sequence (P07724 25-608 limits assumed): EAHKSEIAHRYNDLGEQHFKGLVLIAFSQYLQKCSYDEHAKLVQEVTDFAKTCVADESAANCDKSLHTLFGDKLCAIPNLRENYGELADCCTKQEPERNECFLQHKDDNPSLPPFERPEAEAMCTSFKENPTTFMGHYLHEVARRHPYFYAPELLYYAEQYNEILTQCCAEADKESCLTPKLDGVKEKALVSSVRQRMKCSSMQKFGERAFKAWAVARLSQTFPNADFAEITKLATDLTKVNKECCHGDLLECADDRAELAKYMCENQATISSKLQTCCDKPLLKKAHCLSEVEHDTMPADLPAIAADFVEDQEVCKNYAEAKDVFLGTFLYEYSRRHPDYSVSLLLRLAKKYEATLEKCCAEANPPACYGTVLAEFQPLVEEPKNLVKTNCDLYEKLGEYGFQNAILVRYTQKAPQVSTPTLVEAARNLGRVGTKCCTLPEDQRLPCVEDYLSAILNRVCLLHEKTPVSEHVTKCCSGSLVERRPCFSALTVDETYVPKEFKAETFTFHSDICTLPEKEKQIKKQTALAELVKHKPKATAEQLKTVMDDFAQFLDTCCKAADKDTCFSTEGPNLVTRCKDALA

On to LAEAKVLANRELDKYGVSDYYKNLINNAKTVEGVKALIDEILAALP (modifications not checked), for which, in experiment [1], the equilibrium dissociation constant (Kd) was 1.2 nM, the koff came to 0.00065 s⁻¹ and the kon was 550000 M⁻¹ s⁻¹. In experiment [2], this molecule came in with an equilibrium dissociation constant (Kd) of 1.5 nM. This molecule registered a dissociation constant (Kd) in experiment [3] of 4.9 nM.
